From patent US20250270319A1 (Alector, published 2025)

How the values were obtained:
[1] = biological target: T1, recombinant human CD33 protein (Sino Biologicals) (human, UniProt P20138 18-259); assay: ELISA on recombinant CD33, relative binding, antibody concentration not given
T1 construct: Bought protein; also called recombinant CD33

[2] = biological target: T2, human CD33 on primary human dendritic cells (human, UniProt P20138 18-364); assay: flow cytometry on primary human dendritic cells, antibody at 2 ug/mL, fluorescent anti-human IgG secondary
T2 construct: Endogenous CD33 of monocyte-derived dendritic cells from healthy donors; also called Siglec-3
T2 sequence (P20138 18-364): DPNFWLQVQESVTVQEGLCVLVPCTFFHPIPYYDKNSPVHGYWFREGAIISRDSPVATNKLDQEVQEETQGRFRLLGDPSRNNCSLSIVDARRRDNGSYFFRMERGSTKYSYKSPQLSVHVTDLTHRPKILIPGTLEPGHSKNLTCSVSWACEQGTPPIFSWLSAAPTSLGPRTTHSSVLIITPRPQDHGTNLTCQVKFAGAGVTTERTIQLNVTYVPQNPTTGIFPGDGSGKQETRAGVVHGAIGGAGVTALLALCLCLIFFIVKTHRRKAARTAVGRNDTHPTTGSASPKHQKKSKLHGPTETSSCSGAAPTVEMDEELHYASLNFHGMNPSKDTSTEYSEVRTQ
Experimental: The 7 humanized anti-CD33 antibodies of 6C7 were evaluated for binding to primary dendritic cells by flow cytometry, and binding was compared to that of an anti-CD33 6C7 chimeric antibody that contained the variable heavy chain sequence and the variable light chain sequence of anti-CD33 antibody 6C7. Monocytes were isolated from blood from healthy human donors using the RosetteSep™ monocyte isolation antibody cocktail (StemCell Technologies). The isolated monocytes were differentiated into dendritic cells with 100 ng/mL GM-CSF and 100 ng/mL IL-4 (Peprotech). Dendritic cells were incubated with dilutions of the anti-CD33 antibodies for 30 minutes on ice in the dark, followed by a 30-minute incubation with a fluorescently-conjugated anti-human IgG secondary antibody. Cells were washed twice in FACS buffer (PBS+2% FBS, 2 mM EDTA), and flow cytometry was performed on a BD FACS Canto. Data were analyzed using FlowJo software (Ashland, OR).
The antibody variants were evaluated for binding to primary human dendritic cells, according to the method described in Example 1, at an antibody concentration of 2 μg/mL.

[3] = biological target: T3, recombinant cynomolgus CD33 protein (NovoProtein) (cynomolgus); assay: BLI (ForteBio)
T3 construct: Bought protein; also called cyno CD33
T3 sequence (chain, as listed by the source limits assumed): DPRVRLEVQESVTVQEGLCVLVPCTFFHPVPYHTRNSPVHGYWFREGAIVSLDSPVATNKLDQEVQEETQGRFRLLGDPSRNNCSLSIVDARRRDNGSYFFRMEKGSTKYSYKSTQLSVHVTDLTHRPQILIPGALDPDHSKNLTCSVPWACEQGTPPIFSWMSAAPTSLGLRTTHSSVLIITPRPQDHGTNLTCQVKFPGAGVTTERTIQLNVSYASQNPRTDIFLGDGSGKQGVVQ
Experimental: (§1) Affinity parameters of the antibody variants for human CD33 were measured by BioLayer Interferometry in a ForteBio assay according to standard techniques (Estep et al. (2013) MAbs 5(2): 270-8) and were compared to those of the parental antibody (antibody 6C7H8) and the parental humanized antibody (antibody 6C71H5). Briefly, the antibodies were captured on anti-human Fc Biosensors (Pall ForteBio). Recombinant human CD33 (10 nM, Sino Biologicals) was then bound to the captured anti-CD33 surface (200 s association time, 1200 s dissociation time). Local fitting was used to extract association and dissociation rate constants (kₐ and kd, respectively) for each antibody. Apparent affinity constants (KD) were calculated from the ratio kd/kₐ.
(§2) The affinity parameters of anti-CD33 antibody 6C7H54 for human CD33 and cynomolgus CD33 were measured by BioLayer Interferometry in a ForteBio assay, according to the method described above.

[4] = biological target: T2, human CD33 on primary human dendritic …; assay: cell-based or functional assay
[5] = biological target: T2, human CD33 on primary human dendritic …; assay: cell-based or functional assay; remark: listed apart in the source
[6] = biological target: T1, recombinant human CD33 protein (Sino …); assay: ELISA, plate coated with recombinant CD33
[7] = biological target: T3, recombinant cynomolgus CD33 protein …; assay: ELISA, plate coated with recombinant CD33
[8] = biological target: T1, recombinant human CD33 protein (Sino …); assay: BLI (ForteBio), antibody on anti-human Fc sensor
Experimental: as §1, §2

[9] = biological target: T3, recombinant cynomolgus CD33 protein …; assay: BLI (ForteBio), antibody on anti-human Fc sensor
Experimental: as §1, §2

T1 sequence (P20138 18-259 limits assumed): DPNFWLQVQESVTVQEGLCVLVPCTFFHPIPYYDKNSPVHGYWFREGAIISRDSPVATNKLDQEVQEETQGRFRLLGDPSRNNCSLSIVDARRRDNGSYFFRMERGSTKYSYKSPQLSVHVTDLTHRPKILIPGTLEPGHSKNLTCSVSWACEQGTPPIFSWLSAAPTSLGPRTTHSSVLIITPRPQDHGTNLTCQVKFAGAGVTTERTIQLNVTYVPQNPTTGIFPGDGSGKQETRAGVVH

binding result [1]	binding result [2]	fold difference of binding affinity, cynomolgus CD33 against human CD33 [3]	Fold increase in potency compared to 6C7H5 [4]	Receptor downregulation, (EC50) (pM) [4]	Maximal downregulation (% CD33 remaining) [5]	Receptor downregulation, (pM, EC50) [5]	EC50 [6]	EC50 [7]	Relative maximal binding (cyno/human) [7]	Relative potency (human/cyno) [7]	Kd [8]	koff [8]	kon [8]	Kd [9]	koff [9]	kon [9]	Binder
binds	binds	–	–	–	–	–	–	–	–	–	–	–	–	–	–	–	anti-CD33 antibody 6C7H11 (antibody, V domains shown, VH/VL only) VH: EVQLVESGGGLVQPGGSLRLSCAASGFTFSEYAMNWVRQAPGKGLEWVGEIRLKSNNYVTNYAASVKGRFTISRDDSKNSVYLQMNSLKTEDTGVYYCTRAGYYVPFAYWGQGTLVTVSS VL: QLVLTQSPSASASLGASVKLTCTLSSQHSTYTIEWYQQQPEKGPRYLMELKKGGSHSTGDGIPDRFSGSSSGAERYLTISSLQSEDEADYYCGVGDTIKEQFVYVFGGGTKLTVL
–	–	≤ 3 fold	1.2 fold	30.2 pM	26.1 % CD33 remaining	30.2 pM	0.28 nM	0.57 nM	0.73	0.49	0.061 nM	3.32e-05 s⁻¹	545000 M⁻¹ s⁻¹	0.178 nM	0.000105 s⁻¹	589000 M⁻¹ s⁻¹	anti-CD33 antibody 6C7H54 (antibody, IgG1, V domains shown, VH/VL only; also called 6C7H54 IgG1; 6C754) VH: EVQLVESGGGLVQPGGSLRLSCAGSGFTFSNYEMNWVRQAPGKGLEWVAEIRLKSNNYVTNYAASVKGRFTISRDDSKNSVYLQMNSLKTEDTGVYYCTRAGYYVPFAYWGQGTLVTVSS VL: QLMLTQSPSASASLGASVKLTCTLSSQHSTYTIEWYQQQPGKGPRYLMELKKEGSHSTGDGIPDRFSGSSSGAERYLTISSLQSEDEADYYCGVGHTIKEQFVYVFGGGTKLTVL
